In the test the target is 77405-MSA (77405 fused to mouse serum albumin) (human | mouse, UniProt P0CG48 1-76; P0CG48 1-76, Gln-2 to Arg | Phe-4 to Trp | Lys-6 to His | Gln-62 to Asn | Lys-63 to Pro | …). Nature of the test: ELISA; 67B89 target or 6789 off-target coated on Medisorp 96-well plates; variant in serial dilutions, 1 h; detection with anti-Ubi-Fab-POD; apparent KD by hyperbolic fit. The settings on record: both partners purified. (In general: ELISA stands for enzyme-linked immunosorbent assay.)

B1: 67B89 (ED-B domain of fibronectin flanked by its N-terminal domains 6 and 7 and C-terminal domains 8 and 9) (domain or fragment)
chain: not shown
notes: fibronectin, UniProt P02751 isoform 7, residues 1080-1541 (domains 6, 7, ED-B, 8, 9); numbers count on: isoform 7; tag-free, from pET28a; gene synthesis; also called 67B89 target; ED-B target; source: E. coli HMS174 (DE3), purified (Q-Sepharose FF, ammonium sulfate precipitation, Phenyl HP, Q Sepharose HP)
Consider B1, for which the Kd amounted to 0.58 nM.

The values are drawn from article PMC3961674, “Novel Ubiquitin-derived High Affinity Binding Proteins with Tumor Targeting Properties*” (The Journal of Biological Chemistry, 2014).
